Measured values from PMC7820290 (Nature Communications, 2020).

Experiments:
Test in all cases: […]; 5 mM HEPES pH 7.5, 80 mM KCl, 20 °C; […]
Conditions in all cases: both partners purified
[1] = molecular target: T1, SARS-CoV-2 N protein residues 1–364 (SARS-CoV-2, UniProt P0DTC9 1-364)
T1 construct: also called N^1–364

[2] = molecular target: T2, SARS-CoV-2 N protein residues 49–364 (SARS-CoV-2, UniProt P0DTC9 49-364)
T2 construct: also called N^49–364

[3] = molecular target: T3, SARS-CoV-2 N protein residues 49–419 (SARS-CoV-2, UniProt P0DTC9 49-419)
T3 construct: also called N^49–419

Measured: binding result

B1: soluble C-terminal domain of SARS-CoV-2 membrane (M) protein (aa 104–222 of 222) fused to GFP (domain or fragment)
chain: ARTRSMWSFNPETNILLNVPLHGTILTRPLLESELVIGAVILRGHLRIAGHHLGRCDIKDLPKEITVATSRTLSYYKLGASQRVAGDSGFAAYSRYRIGNYKLNTDHSSSSDNIALLVQ
notes: also called GFP-M^104–222
binds: [1] | [2] | [3]
